The record followed here is paper PMC8989531 (Nucleic Acids Research, 2022).

For this test, the target named is T1, RecD2-His (Bacillus subtilis RecD2 helicase with C-terminal His tag) (B. subtilis, UniProt O34481 1-798).
T1 sequence (looked up): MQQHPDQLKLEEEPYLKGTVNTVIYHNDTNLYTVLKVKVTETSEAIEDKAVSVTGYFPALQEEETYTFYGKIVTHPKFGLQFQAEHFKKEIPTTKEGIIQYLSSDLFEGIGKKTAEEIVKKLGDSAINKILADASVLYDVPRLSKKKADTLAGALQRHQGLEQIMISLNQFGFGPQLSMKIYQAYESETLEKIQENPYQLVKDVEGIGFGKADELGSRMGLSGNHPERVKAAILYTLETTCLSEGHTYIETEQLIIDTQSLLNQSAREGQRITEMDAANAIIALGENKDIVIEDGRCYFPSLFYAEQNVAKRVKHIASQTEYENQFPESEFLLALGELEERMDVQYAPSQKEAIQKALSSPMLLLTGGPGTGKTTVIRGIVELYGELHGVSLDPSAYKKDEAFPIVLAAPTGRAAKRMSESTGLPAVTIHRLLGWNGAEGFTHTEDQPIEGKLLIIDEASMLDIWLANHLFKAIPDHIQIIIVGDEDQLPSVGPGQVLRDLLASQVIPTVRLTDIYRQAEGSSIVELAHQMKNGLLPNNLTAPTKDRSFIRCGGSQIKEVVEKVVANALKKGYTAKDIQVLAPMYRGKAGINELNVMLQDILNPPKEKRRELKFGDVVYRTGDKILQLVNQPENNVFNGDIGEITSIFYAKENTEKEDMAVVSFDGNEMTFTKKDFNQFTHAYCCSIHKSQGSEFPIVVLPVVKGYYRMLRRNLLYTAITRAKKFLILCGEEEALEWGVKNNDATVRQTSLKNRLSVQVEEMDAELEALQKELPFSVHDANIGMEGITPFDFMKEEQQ
Kind of test: far-Western, overlay or dot blot.

B1: RecA (Bacillus subtilis recombinase) (natural protein, B. subtilis, UniProt P16971 1-348, looked up)
chain: MSDRQAALDMALKQIEKQFGKGSIMKLGEKTDTRISTVPSGSLALDTALGIGGYPRGRIIEVYGPESSGKTTVALHAIAEVQQQGGQAAFIDAEHALDPVYAQKLGVNIEELLLSQPDTGEQALEIAEALVRSGAVDIVVVDSVAALVPKAEIEGDMGDSHVGLQARLMSQALRKLSGAINKSKTIAIFINQIREKVGVMFGNPETTPGGRALKFYSSVRLEVRRAEQLKQGNDVMGNKTKIKVVKNKVAPPFRTAEVDIMYGEGISKEGEIIDLGTELDIVQKSGSWYSYEEERLGQGRENAKQFLKENKDIMLMIQEQIREHYGLDNNGVVQQQAEETQEELEFEE
As for B1, the binding result is “binds”.

B2: SsbA (Bacillus subtilis single-stranded DNA binding protein) (natural protein, B. subtilis, UniProt P37455 1-172, looked up)
chain: MLNRVVLVGRLTKDPELRYTPNGAAVATFTLAVNRTFTNQSGEREADFINCVTWRRQAENVANFLKKGSLAGVDGRLQTRNYENQQGQRVFVTEVQAESVQFLEPKNGGGSGSGGYNEGNSGGGQYFGGGQNDNPFGGNQNNQRRNQGNSFNDDPFANDGKPIDISDDDLPF
For B2, the binding result is “binds”.
